{"source": "patent US20140303084A1", "about": "(Biogen, published 2014)", "note": "Square brackets hold non-standard residues; d marks the D form. Primed or numbered codes have the meaning given here. Ends that are not written are not given here. * marks the point of attachment. Biotin = O=C1N[C@H]2[C@H](CS[C@H]2CCCCC(=O)*)N1; PEG2(3) = PEG2 spacer carrying biotin on Lys; NMeL = CN[C@@H](CC(C)C)C(=O)O"}
{"target": "T1, human Factor IXa (human, UniProt P00740 47-191; P00740 227-461)", "test": "cell-based or functional assay", "units": {"EC50 (µM), FXa generation assay, without phospholipids": "µM"}}
{"binder": "[dK][NMeL]TCLASYCWLF-NH2 (cysteine pairing not given here)", "note": "[compound 2]", "EC50 (µM), FXa generation assay, without phospholipids": 0.2}
{"binder": "KLTCLASYCWLF-NH2 (not fully specified (bridges); cysteine pairing not given here)", "note": "[compound 1]", "EC50 (µM), FXa generation assay, without phospholipids": 0.4}
{"target": "T1, human Factor IXa", "test": "cell-based or functional assay", "remark": "another data set of the same source", "units": {"EC50, FXa generation assay with human FIXa": "µM"}}
{"binder": "KLTCLASYCWLF-NH2 (not fully specified (bridges); cysteine pairing not given here)", "note": "[compound 1]", "EC50, FXa generation assay with human FIXa": 0.3}
{"target": "T1, human Factor IXa", "test": "cell-based or functional assay", "remark": "another data set of the same source", "units": {"EC50 [µM], FXa generation assay": "µM", "EC50 [µM], FXa generation assay with hFIXa": "µM"}}
{"binder": "VGEHRKISCVASNCQLLRSGLA", "EC50 [µM], FXa generation assay": "> 20"}
{"binder": "TLLYQNRTCLASYCWLFDKRSV", "EC50 [µM], FXa generation assay": "> 50"}
{"binder": "{Biotin-PEG2(3)}-LYTAWIKCQFARLPGCALSGRW (cysteine pairing not given here)", "note": "[Biotin-PEG2-LYTAWIKCQFARLPGCALSGRW]", "EC50 [µM], FXa generation assay": "> 10"}
{"binder": "YARDSTLTCQARTCQLVDYLGP", "EC50 [µM], FXa generation assay": "> 50"}
{"binder": "[dK][NMeL]TCLASYCWLF-NH2 (cysteine pairing not given here)", "note": "[compound 2]", "EC50 [µM], FXa generation assay": "< 0.5", "EC50 [µM], FXa generation assay with hFIXa": "< 0.5"}
{"binder": "WHERQQLTCLASYCGLFVGQVA", "EC50 [µM], FXa generation assay": "< 0.5"}
{"binder": "GFGSRKLTSLASYGWLIQDRLP", "EC50 [µM], FXa generation assay": "> 50"}
{"binder": "MLTCIASYCQLG", "EC50 [µM], FXa generation assay": "> 20"}
{"binder": "KLTCLASYCWLF-NH2 (not fully specified (bridges); cysteine pairing not given here)", "note": "[compound 1]", "EC50 [µM], FXa generation assay with hFIXa": "< 0.5"}
{"binder": "GAQLDKETCLASYCQLFSTVRR", "EC50 [µM], FXa generation assay": "> 20"}
{"binder": "LLHAQKLSCLASYCWVFDAEWD", "EC50 [µM], FXa generation assay": "< 0.5"}
{"binder": "AQLRRKLTCLASYCWLFGFFSP", "EC50 [µM], FXa generation assay": "> 1"}
{"binder": "APPGGKRMCLVSGCQLFPWSAS", "EC50 [µM], FXa generation assay": "> 50"}
{"binder": "QLPCLASYCGLF", "EC50 [µM], FXa generation assay": "> 20"}
{"binder": "SGRGGKLTCQASFCQLFGNGLS", "EC50 [µM], FXa generation assay": "< 0.5"}
{"binder": "GASSDKLTCRTRHCSMFQPLSV", "EC50 [µM], FXa generation assay": "> 20"}
{"binder": "RRCPGKLQALASYCWLFWTGIA", "EC50 [µM], FXa generation assay": "> 1"}
{"binder": "SGFGMKLTCLASYCGLFQGEIG", "EC50 [µM], FXa generation assay": "< 0.5"}
{"binder": "GEGGGKLSCVAIQCGLFKGLGR", "EC50 [µM], FXa generation assay": "> 50"}
{"binder": "LRTQPKVTGLASCSGLVNCSRD", "EC50 [µM], FXa generation assay": "> 20"}
{"binder": "QGQARKLACLASYCWLFPSSAG", "EC50 [µM], FXa generation assay": "> 50"}
{"binder": "RYQRARLTCLASYCGLLFSMSA", "EC50 [µM], FXa generation assay": "> 15"}
{"binder": "DAGPNKLRCLASYCQLFGGGHA", "EC50 [µM], FXa generation assay": "> 50"}
{"binder": "MEGTRQPTCLASYCSPFQYVAP", "EC50 [µM], FXa generation assay": "> 20"}
{"binder": "RPGGGKVTCQASYCWPFLARAG", "EC50 [µM], FXa generation assay": "> 20"}
{"binder": "LLQIPNLTCLGSYCWLDNGVYA", "EC50 [µM], FXa generation assay": "> 50"}
{"binder": "LRQRLAKTCVASYCWLFSLVAS", "EC50 [µM], FXa generation assay": "> 10"}
{"binder": "GIQGSEVACRASFCRLFEQGHV", "EC50 [µM], FXa generation assay": "> 50"}
{"binder": "MAGMLKLTCFASYCGLFPLVSS", "EC50 [µM], FXa generation assay": "< 0.5"}
{"binder": "HYARVQLRCLDGYCWLLTKSRM", "EC50 [µM], FXa generation assay": "> 10"}
{"binder": "VQRSTQLTCLYGGCRLFGWNYH", "EC50 [µM], FXa generation assay": "> 20"}
{"binder": "SYGRTKLTCLASSCWLFGQVHG", "EC50 [µM], FXa generation assay": "> 10"}
{"binder": "GSCRDQLTCLSSDRWQFFRRVS", "EC50 [µM], FXa generation assay": "> 20"}
{"binder": "RSFTSELTCLASSCRRFHHVPP", "EC50 [µM], FXa generation assay": "> 20"}
{"binder": "GVEDRQLTCLASSCWVFSRHSV", "EC50 [µM], FXa generation assay": "> 1"}
{"binder": "DSRSAKRKCLASYCWLFGIGQA", "EC50 [µM], FXa generation assay": "> 20"}
{"binder": "RFQTTQLTCLGSASCLFNLSVR", "EC50 [µM], FXa generation assay": "> 1"}
{"binder": "TLDSKNLQCLGSSCWLFSSGLS", "EC50 [µM], FXa generation assay": "> 20"}
{"binder": "WVPQWKVTCLASCSRLFHGFDA", "EC50 [µM], FXa generation assay": "> 5"}
{"binder": "GCSSDKLTARTRHCSMFQPLSV", "EC50 [µM], FXa generation assay": "> 20"}
{"binder": "RCAQSRLPWLVSYCWLFSPYGM", "EC50 [µM], FXa generation assay": "> 5"}
{"binder": "LQELTKLTCLARSGWLVCNPGY", "EC50 [µM], FXa generation assay": "> 20"}
{"binder": "VDKGHQLRCQAGYCWLLGYNRE", "EC50 [µM], FXa generation assay": "> 50"}
{"binder": "ERYRLDMTCMASQCWQFPPAAG", "EC50 [µM], FXa generation assay": "< 0.5"}
{"binder": "RRAPGKLQCLASYCWLFWTAIA", "EC50 [µM], FXa generation assay": "< 0.5"}
{"binder": "AWPYHKPTCLASQCWQFLAQGS", "EC50 [µM], FXa generation assay": "> 50"}
{"binder": "RRAPGKLQCLASYCWLFWTGAA", "EC50 [µM], FXa generation assay": "> 1"}
{"binder": "EGRRDKLTCLASYCWLVGHGQH", "EC50 [µM], FXa generation assay": "> 25"}
{"binder": "SGGSGKLTCLASYCWPFGSQVR", "EC50 [µM], FXa generation assay": "> 50"}
{"binder": "AVAINKVPCVASYCQLFESKIH", "EC50 [µM], FXa generation assay": "> 20"}
{"binder": "VAHYGKVTCLASYCQPLPSVGA", "EC50 [µM], FXa generation assay": "> 20"}
{"binder": "QDGDGKLTCRASYCRRFLVGVH", "EC50 [µM], FXa generation assay": "> 50"}
{"binder": "SCVKHELKCLSSDSRLFSAVQR", "EC50 [µM], FXa generation assay": "> 20"}
{"binder": "EQTCLASYCWLF", "EC50 [µM], FXa generation assay": "> 20"}
{"binder": "HMQWGKLPCLASYCWLFWYGIG", "EC50 [µM], FXa generation assay": "> 1"}
{"binder": "GGALQQLTCPASYCWLFPMEHS", "EC50 [µM], FXa generation assay": "> 10"}
{"binder": "SISGQQLTCRASHCWLNLPWHS", "EC50 [µM], FXa generation assay": "> 20"}
{"binder": "QDGVEKLTCLASYCWRFGDHGA", "EC50 [µM], FXa generation assay": "> 50"}
{"binder": "SLADTQLTWLARQYWLSVSEGS", "EC50 [µM], FXa generation assay": "> 20"}
{"binder": "KEGFAQLPCLVCQGGLFSPRAI", "EC50 [µM], FXa generation assay": "> 20"}
